This is an account of results in US20250376533A1 (FUTUREGEN BIOPHARMACEUTICAL BEIJING, published 2025).

Holding throughout (assay): ELISA, coated antigen
Assay [1] has as its target T1, human CD40 antigen (ACROBiosystems) (human, UniProt P25942 21-193).
T1 construct: Bought antigen coated on ELISA plates; construct not described
How it is done: (§1) The binding ability of monoclonal antibody to human CD40, as well as the species specificity, was detected using an enzyme-linked immunosorbent assay (ELISA). The specific method is as follows: human CD40, cynomolgus CD40, rat CD40, and mouse CD40 antigens (all purchased from ACROBiosystems) were coated with 1 μg/mL carbonate buffer (pH=9.6) in an ELISA plate at 100 μL per well, followed by incubation at 4° C. overnight. The wells were washed 5 times with PBST. 300 μL/well of PBST containing 1% BSA was added to block the wells, and the plate was incubated at room temperature for 1 hour. The wells were washed 5 times with PBST. […] The wells were washed 5 times with PBST. […] The wells were washed 5 times with PBST. Colorimetric substrate TMB was added at 100 μL per well and allowed to develop color at room temperature for 10 minutes, followed by the addition of 1 M sulfuric acid to terminate the reaction. The OD₄₅₀ nm was read on a microplate reader to analyze the results, and the EC₅₀ was calculated using a 4-parameter fit binding curve.

Assay [2] deals with T2, cynomolgus CD40 antigen (ACROBiosystems) (cynomolgus, UniProt G7PG38 21-193).
T2 construct: Bought antigen coated on ELISA plates; construct not described
Here is the method: as §1

For assay [3], the target named is T3, rat CD40 antigen (ACROBiosystems) (rat, UniProt A6JXD6 20-193).
T3 construct: Bought antigen coated on ELISA plates; construct not described
T3 sequence: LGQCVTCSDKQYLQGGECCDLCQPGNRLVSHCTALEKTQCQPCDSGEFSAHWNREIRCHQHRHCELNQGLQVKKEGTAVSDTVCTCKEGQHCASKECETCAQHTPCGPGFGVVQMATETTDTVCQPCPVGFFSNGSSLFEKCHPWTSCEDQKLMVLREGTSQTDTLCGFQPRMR
Here is the method: as §1

Assay [4] has as its target T4, mouse CD40 antigen (ACROBiosystems) (mouse, UniProt P27512 24-193, limits assumed).
T4 construct: Bought antigen coated on ELISA plates; construct not described
How it is done: as §1

T1 sequence (P25942 21-193 limits assumed): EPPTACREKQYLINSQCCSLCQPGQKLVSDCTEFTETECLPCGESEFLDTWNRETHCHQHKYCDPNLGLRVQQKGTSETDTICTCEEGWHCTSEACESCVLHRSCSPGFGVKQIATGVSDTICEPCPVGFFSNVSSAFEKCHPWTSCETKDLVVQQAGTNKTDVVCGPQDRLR
T4 sequence (P27512 24-193 limits assumed): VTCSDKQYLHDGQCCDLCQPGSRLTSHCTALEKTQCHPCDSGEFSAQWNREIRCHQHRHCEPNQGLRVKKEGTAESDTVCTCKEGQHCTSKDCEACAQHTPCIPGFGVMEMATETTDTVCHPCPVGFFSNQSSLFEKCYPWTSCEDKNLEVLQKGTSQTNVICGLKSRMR

B1: anti-CD40 monoclonal antibody 1653CD (antibody, human IgG2, kappa, V domains shown)
VH: EVQLVESGGGLVQPGGSLRLSCAASGFTFSDYYMSWVRQAPGKGLEWVGFIRNKANAYTTEYAASVKGRFTISRDNSKSTLYLQMNSLRAEDTAVYYCARYGGLKKGWYFDLWGQGTLVTVSS
VL: DIQMTQSPSSLSASVGDRVTITCRASQGIRNYLNWYQQKPGKAPKLLIYYTSSLQSGVPSRFSGSGSGTDYTLTISSLQPEDFATYYCQQGINLPWTFGGGTKVEIKR
For B1, the results for the EC50 in assay [1] and in assay [2] were 0.02 nM and 0.018 nM, respectively. Also, the binding result in assay [3] and in assay [4] was “no binding” each time.

B2: anti-CD40 monoclonal antibody 1607CD (antibody, human IgG2, kappa, V domains shown)
VH: EVQLVESGGGLVQPGGSLRLSCAASGFTFSDYYMSWVRQAPGKGLEWVGFIRNKANGYTTEYAASVKGRFTISRDNSKSTLYLQMNSLRAEDTAVYYCARYGGLKKGWYFDLWGQGTLVTVSS
VL: DIQMTQSPSSLSASVGDRVTITCRASQGIRNYLNWYQQKPGKAPKLLIYYTSSLQSGVPSRFSGSGSGTDYTLTISSLQPEDFATYYCQQGINLPWTFGGGTKVEIKR
As for B2, the EC50 in assay [1] came to 0.021 nM; in assay [2], 0.017 nM. Further, the binding result in assay [3] and in assay [4] was “no binding” in each case.

B3: anti-CD40 monoclonal antibody 1606CD (antibody, human IgG2, kappa, V domains shown)
VH: EVQLVESGGGLVQPGGSLRLSCAASGFTFSDYYMSWVRQAPGKGLEWVGFIRNKANGYTTEYAASVKGRFTISRDNSKNTLYLQMNSLRAEDTAVYYCARYGGLRQGWYFDVWGQGTLVTVSS
VL: DIQMTQSPSSLSASVGDRVTITCRASQDIRNYLNWYQQKPGKAPKLLIYYTSRRDSGVPSRFSGSGSGTDYTLTISSLQPEDFATYFCQQGKTLPWTFGGGTKVEIKR
Consider B3, for which the EC50 in assay [1] was 0.024 nM; in assay [2], 0.02 nM. Further, the binding result in assay [3] and in assay [4] was “no binding” in each case.

B4: anti-CD40 monoclonal antibody 1609CD (antibody, human IgG2, kappa, V domains shown)
VH: EVQLVESGGGLVQPGGSLRLSCAASGFTFSNYYMSWVRQAPGKGLEWVGFIRNKANGYTTEYAASVKGRFTISRDNSKSTLYLQMNSLRAEDTAVYYCARYGGLKIGWYFDLWGQGTLVTVSS
VL: DIQMTQSPSSLSASVGDRVTITCRASQTISSYLNWYQQKPGKAPKLLIYYTSTLQSGVPSRFSGSGSGTDYTLTISSLQPEDFATYYCQQGNAYPWTFGGGTKVEIKR
Consider B4, for which the EC50 in assay [1] was found to be 0.022 nM; in assay [2] it was 0.02 nM. In addition, the binding result in assay [3] and in assay [4] was “no binding” throughout.

B5: anti-CD40 monoclonal antibody 1608CD (antibody, human IgG2, kappa, V domains shown)
VH: EVQLVESGGGLVQPGGSLRLSCAASGFTFSNYYMSWVRQAPGKGLEWVGFIRNKANGYTTEYAASVKGRFTISRDNSKSTLYLQMNRLRAEDTAVYYCARYGGLKVGWYFDLWGQGTLVTVSS
VL: DIQMTQSPSSLSASVGDRVTITCRASQSISNYLAWYQQKPGKAPKLLIYAASSLQSGVPSRFSGSGSGTDYTLTISSLQPEDFATYYCQQGSSYPWTFGGGTKVEIKR
As for B5, the EC50 in assay [1] came to 0.022 nM; in assay [2] it was 0.021 nM. Further, the binding result in assay [3] and in assay [4] was “no binding” throughout.

B6: anti-CD40 monoclonal antibody 1605CD (antibody, human IgG2, kappa, V domains shown)
VH: EVQLVESGGGLVQPGGSLRLSCAASGFTFSNYYMSWVRQAPGKGLEWVAFIRNKANAYTTEYAASVKGRFTISRDNSKSTLYLQMNSLRAEDTAVYYCARYGGIRVGWYFDLWGQGTLVTVSS
VL: DIQMTQSPSSLSASVGDRVTITCRASQDIRNYLNWYQQKPGKAPKLLIYYTSRLQSGVPSRFSGSGSGTDYTLTISSLQPEDFATYYCQQGQSFPWTFGGGTKVEIKR
On to B6, for which the EC50 in assay [1] came out at 0.022 nM; in assay [2] it was 0.021 nM. Further, the binding result in assay [3] and in assay [4] was “no binding” each time.
